Experimental findings from article PMC6962393 (2020) are described below.

For experiment [1], the target named is FN-67B89, human fibronectin EDB flanked by its surrounding type III domains (human). Briefly: ELISA.
Experiment [2] has as its target FN-B, recombinant human fibronectin extra domain B (EDB) as a single domain (human). Briefly: ELISA.

FN-B, recombinant human fibronectin extra domain B (EDB) as a single domain (human), sequence (chain, as listed by the source): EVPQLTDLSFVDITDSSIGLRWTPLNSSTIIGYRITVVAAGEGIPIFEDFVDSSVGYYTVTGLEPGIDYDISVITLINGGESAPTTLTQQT
FN-67B89, human fibronectin EDB flanked by its surrounding type III domains (human), sequence (chain, as listed by the source): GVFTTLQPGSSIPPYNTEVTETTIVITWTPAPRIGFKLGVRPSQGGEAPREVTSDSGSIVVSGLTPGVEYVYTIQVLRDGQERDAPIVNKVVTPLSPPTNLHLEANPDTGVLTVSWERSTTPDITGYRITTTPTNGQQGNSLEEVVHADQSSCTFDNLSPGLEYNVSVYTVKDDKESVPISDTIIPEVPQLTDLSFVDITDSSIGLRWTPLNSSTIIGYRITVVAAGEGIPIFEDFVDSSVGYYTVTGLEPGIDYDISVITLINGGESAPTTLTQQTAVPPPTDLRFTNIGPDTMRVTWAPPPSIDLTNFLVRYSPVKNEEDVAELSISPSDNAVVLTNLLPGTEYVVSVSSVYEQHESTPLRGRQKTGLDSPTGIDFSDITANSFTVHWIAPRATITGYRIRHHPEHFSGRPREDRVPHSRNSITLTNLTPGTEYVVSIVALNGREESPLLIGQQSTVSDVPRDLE

Regarding WKCQPTNGYRIRCRRDSDCPGDCICRGNGYCG (designed binder) [Trx-MC-FN-030, Thioredoxin-A fusion of cystine-knot miniprotein MC-FN-030], the Kd is 232 nM in experiment [1] and 234 nM in experiment [2].
On the same counts, the results for SVCKNVSIMRIRLCRRDSDCPGACICRGNGYCG (designed binder) [Trx-MC-FN-050, Thioredoxin-A fusion of cystine-knot miniprotein MC-FN-050] are 67.8 nM and 40.5 nM.
For SVCAHYNTIRVRLCRRDSDCPGACICRGNGYCG (designed binder) [Trx-MC-FN-040, Thioredoxin-A fusion of cystine-knot miniprotein MC-FN-040] the same measures were 29.4 nM and 24 nM.
On the same counts, the results for SVCKQANFVRIRLCRRDSDCPGACICRGNGYCG (designed binder) [Trx-MC-FN-060, Thioredoxin-A fusion of cystine-knot miniprotein MC-FN-060] are 20.4 nM and 10.3 nM.
Take PMCTQRKNRIRLCRRDSDCTGACICRGNGYCG (designed binder) [Trx-MC-FN-010, Thioredoxin-A fusion of cystine-knot miniprotein MC-FN-010]: the Kd is 10.5 nM in experiment [1] and 6.07 nM in experiment [2].
